± gives the uncertainty stated by the source.
B1: Transcription elongation factor A N-terminal and central domain-containing protein, residues 30 to 77; numbered along this chain, Q8N8B7 (parent)
chain: LTELETIYVTKEHLQETDVVRAVYRVLKNCPSVALKKKAKCLLSKWKA

Variants of: B1
Test: abundance fitness (aPCA) (normalised: wild type 0, dead -1); higher = more abundant; growth selection in yeast, the domain comes from the species named
Details: Homo sapiens
For LTELETIYVTKEHLQETDVVRAVYRVLKNCPSVALNKKAKCLLSKWKA, the abundance fitness was -0.833 ± 0.19. LTELETIYVTKEHLQETDVVRAVYRVLKNCPSVALPKKAKCLLSKWKA gave an abundance fitness of -0.211 ± 0.13. LTELETIYVTKEHLQETDVVRAVYRVLKNCPSVALQKKAKCLLSKWKA showed an abundance fitness of -0.063 ± 0.12. In the case of LTELETIYVTKEHLQETDVVRAVYRVLKNCPSVALSKKAKCLLSKWKA, the abundance fitness is reported as -0.609 ± 0.097. LTELETIYVTKEHLQETDVVRAVYRVLKNCPSVALVKKAKCLLSKWKA gave an abundance fitness of 0.066 ± 0.075. For LTELETIYVTKEHLQETDVVRAVYRVLKNCPSVALWKKAKCLLSKWKA, the abundance fitness was 0.113 ± 0.094. In the case of LTELETIYVTKEHLQETDVVRAVYRVLKNCPSVALYKKAKCLLSKWKA, the abundance fitness is reported as 0.049 ± 0.14. For LTELETIYVTKEHLQETDVVRAVYRVLKNCPSVALKAKAKCLLSKWKA, the abundance fitness was -0.365 ± 0.086. LTELETIYVTKEHLQETDVVRAVYRVLKNCPSVALKCKAKCLLSKWKA gave an abundance fitness of -0.895 ± 0.12. For LTELETIYVTKEHLQETDVVRAVYRVLKNCPSVALKEKAKCLLSKWKA, the abundance fitness was -0.248 ± 0.1. In the case of LTELETIYVTKEHLQETDVVRAVYRVLKNCPSVALKGKAKCLLSKWKA, the abundance fitness is reported as -0.578 ± 0.081. With LTELETIYVTKEHLQETDVVRAVYRVLKNCPSVALKHKAKCLLSKWKA the abundance fitness was -0.609 ± 0.19. LTELETIYVTKEHLQETDVVRAVYRVLKNCPSVALKIKAKCLLSKWKA showed an abundance fitness of -0.337 ± 0.15. With LTELETIYVTKEHLQETDVVRAVYRVLKNCPSVALKNKAKCLLSKWKA the abundance fitness was -0.155 ± 0.17. Variant LTELETIYVTKEHLQETDVVRAVYRVLKNCPSVALKPKAKCLLSKWKA has an abundance fitness of -1.02 ± 0.15. For LTELETIYVTKEHLQETDVVRAVYRVLKNCPSVALKQKAKCLLSKWKA, the abundance fitness was -0.553 ± 0.17. LTELETIYVTKEHLQETDVVRAVYRVLKNCPSVALKRKAKCLLSKWKA gave an abundance fitness of 0.023 ± 0.065. LTELETIYVTKEHLQETDVVRAVYRVLKNCPSVALKSKAKCLLSKWKA showed an abundance fitness of -0.346 ± 0.092. In the case of LTELETIYVTKEHLQETDVVRAVYRVLKNCPSVALKTKAKCLLSKWKA, the abundance fitness is reported as -0.574 ± 0.1. LTELETIYVTKEHLQETDVVRAVYRVLKNCPSVALKWKAKCLLSKWKA gave an abundance fitness of -0.68 ± 0.11. LTELETIYVTKEHLQETDVVRAVYRVLKNCPSVALKKAAKCLLSKWKA showed an abundance fitness of 0.023 ± 0.097. With LTELETIYVTKEHLQETDVVRAVYRVLKNCPSVALKKCAKCLLSKWKA the abundance fitness was 0.099 ± 0.17. Variant LTELETIYVTKEHLQETDVVRAVYRVLKNCPSVALKKDAKCLLSKWKA has an abundance fitness of -0.885 ± 0.35. LTELETIYVTKEHLQETDVVRAVYRVLKNCPSVALKKEAKCLLSKWKA gave an abundance fitness of -0.933 ± 0.2. LTELETIYVTKEHLQETDVVRAVYRVLKNCPSVALKKFAKCLLSKWKA gave an abundance fitness of -0.193 ± 0.31. For LTELETIYVTKEHLQETDVVRAVYRVLKNCPSVALKKGAKCLLSKWKA, the abundance fitness was -0.209 ± 0.074. Work on LTELETIYVTKEHLQETDVVRAVYRVLKNCPSVALKKHAKCLLSKWKA yielded an abundance fitness of -0.529 ± 0.14. In the case of LTELETIYVTKEHLQETDVVRAVYRVLKNCPSVALKKIAKCLLSKWKA, the abundance fitness is reported as -0.266 ± 0.16. LTELETIYVTKEHLQETDVVRAVYRVLKNCPSVALKKLAKCLLSKWKA gave an abundance fitness of -0.024 ± 0.1. For LTELETIYVTKEHLQETDVVRAVYRVLKNCPSVALKKNAKCLLSKWKA, the abundance fitness was 0.201 ± 0.41. In the case of LTELETIYVTKEHLQETDVVRAVYRVLKNCPSVALKKPAKCLLSKWKA, the abundance fitness is reported as -0.679 ± 0.23. For LTELETIYVTKEHLQETDVVRAVYRVLKNCPSVALKKQAKCLLSKWKA, the abundance fitness was -0.645 ± 0.19. For LTELETIYVTKEHLQETDVVRAVYRVLKNCPSVALKKRAKCLLSKWKA, the abundance fitness was -0.061 ± 0.077. Variant LTELETIYVTKEHLQETDVVRAVYRVLKNCPSVALKKTAKCLLSKWKA has an abundance fitness of -0.11 ± 0.24. In the case of LTELETIYVTKEHLQETDVVRAVYRVLKNCPSVALKKWAKCLLSKWKA, the abundance fitness is reported as -0.252 ± 0.12. LTELETIYVTKEHLQETDVVRAVYRVLKNCPSVALKKYAKCLLSKWKA showed an abundance fitness of -0.265 ± 0.18. LTELETIYVTKEHLQETDVVRAVYRVLKNCPSVALKKKCKCLLSKWKA gave an abundance fitness of 0.072 ± 0.12. LTELETIYVTKEHLQETDVVRAVYRVLKNCPSVALKKKDKCLLSKWKA showed an abundance fitness of -0.826 ± 0.19. LTELETIYVTKEHLQETDVVRAVYRVLKNCPSVALKKKEKCLLSKWKA gave an abundance fitness of -0.972 ± 0.16. Variant LTELETIYVTKEHLQETDVVRAVYRVLKNCPSVALKKKGKCLLSKWKA has an abundance fitness of -0.576 ± 0.064. In the case of LTELETIYVTKEHLQETDVVRAVYRVLKNCPSVALKKKHKCLLSKWKA, the abundance fitness is reported as -0.553 ± 0.27. Variant LTELETIYVTKEHLQETDVVRAVYRVLKNCPSVALKKKIKCLLSKWKA has an abundance fitness of 0.2 ± 0.18. LTELETIYVTKEHLQETDVVRAVYRVLKNCPSVALKKKKKCLLSKWKA showed an abundance fitness of -0.883 ± 0.35. Work on LTELETIYVTKEHLQETDVVRAVYRVLKNCPSVALKKKLKCLLSKWKA yielded an abundance fitness of -0.089 ± 0.08. For LTELETIYVTKEHLQETDVVRAVYRVLKNCPSVALKKKMKCLLSKWKA, the abundance fitness was -0.016 ± 0.12. With LTELETIYVTKEHLQETDVVRAVYRVLKNCPSVALKKKNKCLLSKWKA the abundance fitness was -0.61 ± 0.36. LTELETIYVTKEHLQETDVVRAVYRVLKNCPSVALKKKRKCLLSKWKA gave an abundance fitness of -0.968 ± 0.093. LTELETIYVTKEHLQETDVVRAVYRVLKNCPSVALKKKSKCLLSKWKA showed an abundance fitness of -0.745 ± 0.13. Variant LTELETIYVTKEHLQETDVVRAVYRVLKNCPSVALKKKTKCLLSKWKA has an abundance fitness of -0.512 ± 0.14. LTELETIYVTKEHLQETDVVRAVYRVLKNCPSVALKKKVKCLLSKWKA showed an abundance fitness of 0.096 ± 0.078. Variant LTELETIYVTKEHLQETDVVRAVYRVLKNCPSVALKKKYKCLLSKWKA has an abundance fitness of -0.452 ± 0.17. Variant LTELETIYVTKEHLQETDVVRAVYRVLKNCPSVALKKKAKDLLSKWKA has an abundance fitness of -0.182 ± 0.18. Variant LTELETIYVTKEHLQETDVVRAVYRVLKNCPSVALKKKAKELLSKWKA has an abundance fitness of 0.019 ± 0.17. In the case of LTELETIYVTKEHLQETDVVRAVYRVLKNCPSVALKKKAKFLLSKWKA, the abundance fitness is reported as 0.005 ± 0.22.
